Measurements published in publication PMC4884786.

Target: Fbxl17 (UniProt Q9UF56)
Test: HA-Sufu IP, Myc-Fbxl17 blot
Settings: reference: Sufu wild type; sites S342,S346

- binding against the reference: stronger
Substance: Sufu (from UniProt Q9UMX1) Sufu S342A/S346A
